Legend:
PfMCMN F202A = target: T1, PfMCMN F202A (Pyrococcus furiosus, UniProt Q8U3I4 1-256, F202A); test: EMSA; 5 mM Mg2+; EMSA: 20 mM HEPES pH 7.6, 200 mM NaCl, 5 mM MgCl2, 5 mM bME, 25 C, 30 min, 160 nM DNA; 4-20% TBE PAGE; details: protein: recombinant; tags: His6-SUMO removed by Ulp1; label: 5'-fluorescein
T1 sequence: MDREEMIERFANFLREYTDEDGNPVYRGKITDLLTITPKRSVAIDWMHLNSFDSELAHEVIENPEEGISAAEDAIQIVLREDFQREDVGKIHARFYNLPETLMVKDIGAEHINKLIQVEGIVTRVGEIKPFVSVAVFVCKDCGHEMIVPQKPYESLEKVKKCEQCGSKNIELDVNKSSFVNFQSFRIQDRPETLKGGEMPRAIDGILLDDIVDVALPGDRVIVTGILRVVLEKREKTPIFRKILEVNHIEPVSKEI

PfMCMN K233A = target: T2, PfMCMN K233A (Pyrococcus furiosus, UniProt Q8U3I4 1-256, K233A); test: as above; details: protein: recombinant; tags: His6-SUMO removed by Ulp1; label: 5'-fluorescein
T2 sequence: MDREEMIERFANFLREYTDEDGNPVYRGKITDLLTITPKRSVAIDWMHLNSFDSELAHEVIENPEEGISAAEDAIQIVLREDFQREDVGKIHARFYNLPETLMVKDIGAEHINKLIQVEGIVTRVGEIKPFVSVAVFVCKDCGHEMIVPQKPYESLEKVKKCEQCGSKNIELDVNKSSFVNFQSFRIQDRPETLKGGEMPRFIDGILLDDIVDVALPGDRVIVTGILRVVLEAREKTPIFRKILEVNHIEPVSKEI

PfMCMN R124A [1] = target: T3, PfMCMN R124A (Pyrococcus furiosus, UniProt Q8U3I4 1-256, R124A); test: as above; details: protein: recombinant; tags: His6-SUMO removed by Ulp1; label: 5'-fluorescein
T3 sequence: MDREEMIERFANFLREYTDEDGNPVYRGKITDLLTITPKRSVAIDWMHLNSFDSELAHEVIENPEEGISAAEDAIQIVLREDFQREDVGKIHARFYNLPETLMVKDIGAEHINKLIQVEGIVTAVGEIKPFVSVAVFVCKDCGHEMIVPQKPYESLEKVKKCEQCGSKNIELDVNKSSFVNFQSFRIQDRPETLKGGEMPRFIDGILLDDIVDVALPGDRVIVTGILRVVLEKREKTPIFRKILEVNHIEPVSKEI

PfMCMN R186A [2] = target: T4, PfMCMN R186A (Pyrococcus furiosus, UniProt Q8U3I4 1-256, R186A); test: as above; details: protein: recombinant; tags: His6-SUMO removed by Ulp1; label: 5'-fluorescein
T4 sequence: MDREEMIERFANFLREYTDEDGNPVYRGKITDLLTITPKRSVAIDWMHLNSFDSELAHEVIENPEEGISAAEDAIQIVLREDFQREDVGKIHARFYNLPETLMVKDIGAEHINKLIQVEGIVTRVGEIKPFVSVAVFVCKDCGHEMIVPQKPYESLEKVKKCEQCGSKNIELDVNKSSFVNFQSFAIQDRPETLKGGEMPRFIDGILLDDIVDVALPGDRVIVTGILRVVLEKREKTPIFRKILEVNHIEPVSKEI

PfMCMN K129A [3] = target: T5, PfMCMN K129A (Pyrococcus furiosus, UniProt Q8U3I4 1-256, K129A); test: as above; details: protein: recombinant; tags: His6-SUMO removed by Ulp1; label: 5'-fluorescein
T5 sequence: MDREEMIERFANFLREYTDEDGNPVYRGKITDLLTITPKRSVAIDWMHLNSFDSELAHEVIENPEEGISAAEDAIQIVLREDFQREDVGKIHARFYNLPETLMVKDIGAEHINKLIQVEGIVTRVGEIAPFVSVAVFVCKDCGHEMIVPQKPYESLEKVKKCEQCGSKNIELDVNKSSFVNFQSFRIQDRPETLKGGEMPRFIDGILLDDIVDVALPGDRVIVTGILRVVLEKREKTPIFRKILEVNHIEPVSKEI

PfMCMN R124A/R186A [4] = target: T6, PfMCMN R124A/R186A (Pyrococcus furiosus, UniProt Q8U3I4 1-256, R124A;R186A); test: EMSA; 5 mM Mg2+; protein 54-270 uM; EMSA: 20 mM HEPES pH 7.6, 200 mM NaCl, 5 mM MgCl2, 5 mM bME, 25 C, 30 min, 160 nM DNA; 4-20% TBE PAGE; details: protein: recombinant; tags: His6-SUMO removed by Ulp1; label: 5'-fluorescein
T6 sequence: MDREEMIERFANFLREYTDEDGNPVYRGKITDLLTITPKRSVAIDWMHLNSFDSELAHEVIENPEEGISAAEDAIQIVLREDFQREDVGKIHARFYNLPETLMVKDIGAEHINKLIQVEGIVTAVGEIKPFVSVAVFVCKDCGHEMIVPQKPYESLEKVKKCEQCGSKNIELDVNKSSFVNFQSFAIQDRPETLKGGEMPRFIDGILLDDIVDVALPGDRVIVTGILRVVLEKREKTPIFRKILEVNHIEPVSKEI

PfMCMN R124A [5] = target: T3, PfMCMN R124A; test: EMSA; 5 mM Mg2+; EMSA: 20 mM HEPES pH 7.6, 200 mM NaCl, 5 mM MgCl2, 5 mM bME, 25 C, 30 min, 160 nM DNA; 4-20% TBE PAGE; details: protein: recombinant; tags: His6-SUMO removed by Ulp1; label: 5'-fluorescein on strand 1; blunt
PfMCMN R186A [6] = target: T4, PfMCMN R186A; test: as above; details: protein: recombinant; tags: His6-SUMO removed by Ulp1; label: 5'-fluorescein on strand 1; blunt
PfMCMN K129A [7] = target: T5, PfMCMN K129A; test: as above; details: protein: recombinant; tags: His6-SUMO removed by Ulp1; label: 5'-fluorescein on strand 1; blunt
PfMCMN R124A/R186A [8] = target: T6, PfMCMN R124A/R186A; test: EMSA; 5 mM Mg2+; protein 10-40 uM; EMSA: 20 mM HEPES pH 7.6, 200 mM NaCl, 5 mM MgCl2, 5 mM bME, 25 C, 30 min, 160 nM DNA; 4-20% TBE PAGE; details: protein: recombinant; tags: His6-SUMO removed by Ulp1; label: 5'-fluorescein on strand 1; blunt

For TTTTTTTTTTTTTTTTTTTTTTTTTTTTTTTTTTTTTTTT (ssDNA) [T40 ssDNA], the binding result (PfMCMN F202A) was “binds”, the binding result (PfMCMN K233A) was “binds” and the binding signal (PfMCMN R124A [1]) was 7 fold reduction vs WT. For the same binder, the binding signal (PfMCMN R186A [2]) was 6 fold reduction vs WT, the binding signal (PfMCMN K129A [3]) was 4 fold reduction vs WT and the binding signal (PfMCMN R124A/R186A [4]) was 25 fold reduction vs WT.

B1: 26-mer dsDNA (dsDNA)
DNA 1: ATGGCAGATCTCAATTGGATATCGGC
DNA 2: GCCGATATCCAATTGAGATCTGCCAT
B1: binds (PfMCMN R124A [5]); binds (PfMCMN R186A [6]); binds (PfMCMN K129A [7]). The binding signal (PfMCMN R124A/R186A [8]) was 3 fold reduction vs WT.

— publication PMC3970758, “A conserved MCM single-stranded DNA binding element is essential for replication initiation”
